Numbering of substitutions follows the chain as printed. Names may count otherwise.
B1: GLS3000 V94S one-arm antibody (antibody, human IgG1, kappa, L234A L235A, N297A, name in Kabat numbering)
light: DIVMTQSPLSLPVTPGEPASISCRSSQSLVHSNRNTYLHWYQQKPGQAPRLLIYKVSNRFSGVPDRFSGSGSGTDFTLKISRVEAEDVGVYYCGQGTQSPYTFGQGTKLEIKRTVAAPSVFIFPPSDEQLKSGTASVVCLLNNFYPREAKVQWKVDNALQSGNSQESVTEQDSKDSTYSLSSTLTLSKADYEKHKVYACEVTHQGLSSPVTKSFNRGEC
heavy: QVQLVESGGGVVQPGRSLRLSCAASGFTFSNAWMHWVRQAPGKGLEWVAQIKAKSNNYATYYAESVKGRFTISRDDSKNSLYLQMNSLKTEDTAVYYCRYVHYGAYYGVDAWGQGTTVTVSSASTKGPSVFPLAPSSKSTSGGTAALGCLVKDYFPEPVTVSWNSGALTSGVHTFPAVLQSSGLYSLSSVVTVPSSSLGTQTYICNVNHKPSNTKVDKKVEPKSCDKTHTCPPCPAPEAAGGPSVFLFPPKPKDTLMISRTPEVTCVVVDVSHEDPEVKFNWYVDGVEVHNAKTKPREEQYASTYRVVSVLTVLHQDWLNGKEYKCKVSNKALPAPIEKTISKAKGQPREPQVYTLPPSRCELTKNQVSLSCAVKGFYPSDIAVEWESNGQPENNYKTTPPVLDSDGSFFLVSKLTVDKSRWQQGNVFSCSVMHEALHNHYTQKSLSLSPDYKDDDDK
chain: EPKSSDKTHTCPPCPAPELLGGPSVFLFPPKPKDTLMISRTPEVTCVVVDVSHEDPEVKFNWYVDGVEVHNAKTKPREEQYNSTYRVVSVLTVLHQDWLNGKEYKCKVSNKALPAPIEKTISKAKGQPREPQVCTLPPSRDELTKNQVSLWCLVKGFYPSDIAVEWESNGQPENNYKTTPPVLDSDGSFFLYSKLTVDKSRWQQGNVFSCSVMHEALHNRYTQKSLSLSP
B2: CE115HA000/GLS3000 N53D one-arm antibody (antibody, human IgG1, kappa, L234A L235A, N297A, name in Kabat numbering)
heavy: B1 heavy
chain: B1 chain
light: B1 light with N58D, S99V
notes: one-arm IgG1
B3: CE115HA000/GLS3000 F55P one-arm antibody (antibody, human IgG1, kappa, L234A L235A, N297A, name in Kabat numbering)
heavy: B1 heavy
chain: B1 chain
light: B1 light with F60P, S99V
notes: one-arm IgG1
B4: CE115HA000/GLS3000 F55V one-arm antibody (antibody, human IgG1, kappa, L234A L235A, N297A, name in Kabat numbering)
heavy: B1 heavy
chain: B1 chain
light: B1 light with F60V, S99V
notes: one-arm IgG1
B5: GLS3000 Y96L one-arm antibody (antibody, human IgG1, kappa, L234A L235A, N297A, name in Kabat numbering)
light: B1 light with S99V, Y101L
heavy: B1 heavy
chain: B1 chain
B6: CE115HA000/GLS3000 F55Y one-arm antibody (antibody, human IgG1, kappa, L234A L235A, N297A, name in Kabat numbering)
heavy: B1 heavy
chain: B1 chain
light: B1 light with F60Y, S99V
notes: one-arm IgG1
B7: CE115HA000/GLS3000 F55R one-arm antibody (antibody, human IgG1, kappa, L234A L235A, N297A, name in Kabat numbering)
heavy: B1 heavy
chain: B1 chain
light: B1 light with F60R, S99V
notes: one-arm IgG1
B8: CE115HA000/GLS3000 F55K one-arm antibody (antibody, human IgG1, kappa, L234A L235A, N297A, name in Kabat numbering)
heavy: B1 heavy
chain: B1 chain
light: B1 light with F60K, S99V
notes: one-arm IgG1
B9: CE115HA000/GLS3000 F55Q one-arm antibody (antibody, human IgG1, kappa, L234A L235A, N297A, name in Kabat numbering)
heavy: B1 heavy
chain: B1 chain
light: B1 light with F60Q, S99V
notes: one-arm IgG1
B10: GLS3000 Y32F one-arm antibody (antibody, human IgG1, kappa, L234A L235A, N297A, name in Kabat numbering)
light: B1 light with Y37F, S99V
heavy: B1 heavy
chain: B1 chain
B11: CE115HA000/GLS3000 F55T one-arm antibody (antibody, human IgG1, kappa, L234A L235A, N297A, name in Kabat numbering)
heavy: B1 heavy
chain: B1 chain
light: B1 light with F60T, S99V
notes: one-arm IgG1
B12: CE115HA000/GLS3000 F55I one-arm antibody (antibody, human IgG1, kappa, L234A L235A, N297A, name in Kabat numbering)
heavy: B1 heavy
chain: B1 chain
light: B1 light with F60I, S99V
notes: one-arm IgG1
B13: GLS3000 V94T one-arm antibody (antibody, human IgG1, kappa, L234A L235A, N297A, name in Kabat numbering)
light: B1 light with S99T
heavy: B1 heavy
chain: B1 chain
B14: GLS3000 Y96D one-arm antibody (antibody, human IgG1, kappa, L234A L235A, N297A, name in Kabat numbering)
light: B1 light with S99V, Y101D
heavy: B1 heavy
chain: B1 chain
B15: CE115HA000/GLS3000 G89F one-arm antibody (antibody, human IgG1, kappa, L234A L235A, N297A, name in Kabat numbering)
heavy: B1 heavy
chain: B1 chain
light: B1 light with G94F, S99V
notes: one-arm IgG1
B16: CE115HA000/GLS3000 F55H one-arm antibody (antibody, human IgG1, kappa, L234A L235A, N297A, name in Kabat numbering)
heavy: B1 heavy
chain: B1 chain
light: B1 light with F60H, S99V
notes: one-arm IgG1
B17: CE115HA000/GLS3000 F55N one-arm antibody (antibody, human IgG1, kappa, L234A L235A, N297A, name in Kabat numbering)
heavy: B1 heavy
chain: B1 chain
light: B1 light with F60N, S99V
notes: one-arm IgG1
B18: CE115HA000/GLS3000 F55S one-arm antibody (antibody, human IgG1, kappa, L234A L235A, N297A, name in Kabat numbering)
heavy: B1 heavy
chain: B1 chain
light: B1 light with F60S, S99V
notes: one-arm IgG1
B19: GLS3000 Y96E one-arm antibody (antibody, human IgG1, kappa, L234A L235A, N297A, name in Kabat numbering)
light: B1 light with S99V, Y101E
heavy: B1 heavy
chain: B1 chain
B20: CE115HA000/GLS3000 F55G one-arm antibody (antibody, human IgG1, kappa, L234A L235A, N297A, name in Kabat numbering)
heavy: B1 heavy
chain: B1 chain
light: B1 light with F60G, S99V
notes: one-arm IgG1
B21: CE115HA000/GLS3000 F55E one-arm antibody (antibody, human IgG1, kappa, L234A L235A, N297A, name in Kabat numbering)
heavy: B1 heavy
chain: B1 chain
light: B1 light with F60E, S99V
notes: one-arm IgG1
B22: CE115HA000/GLS3000 G89D one-arm antibody (antibody, human IgG1, kappa, L234A L235A, N297A, name in Kabat numbering)
heavy: B1 heavy
chain: B1 chain
light: B1 light with G94D, S99V
notes: one-arm IgG1
B23: CE115HA000/GLS3000 G89A one-arm antibody (antibody, human IgG1, kappa, L234A L235A, N297A, name in Kabat numbering)
heavy: B1 heavy
chain: B1 chain
light: B1 light with G94A, S99V
notes: one-arm IgG1
B24: CE115HA000/GLS3000 F55D one-arm antibody (antibody, human IgG1, kappa, L234A L235A, N297A, name in Kabat numbering)
heavy: B1 heavy
chain: B1 chain
light: B1 light with F60D, S99V
notes: one-arm IgG1
B25: GLS3000 Y96F one-arm antibody (antibody, human IgG1, kappa, L234A L235A, N297A, name in Kabat numbering)
light: B1 light with S99V, Y101F
heavy: B1 heavy
chain: B1 chain
B26: GLS3000 Y96H one-arm antibody (antibody, human IgG1, kappa, L234A L235A, N297A, name in Kabat numbering)
light: B1 light with S99V, Y101H
heavy: B1 heavy
chain: B1 chain
B27: CE115HA000/GLS3000 F55L one-arm antibody (antibody, human IgG1, kappa, L234A L235A, N297A, name in Kabat numbering)
heavy: B1 heavy
chain: B1 chain
light: B1 light with F60L, S99V
notes: one-arm IgG1
B28: GLS3000 V94W one-arm antibody (antibody, human IgG1, kappa, L234A L235A, N297A, name in Kabat numbering)
light: B1 light with S99W
heavy: B1 heavy
chain: B1 chain
B29: CE115HA000/GLS3000 F55W one-arm antibody (antibody, human IgG1, kappa, L234A L235A, N297A, name in Kabat numbering)
heavy: B1 heavy
chain: B1 chain
light: B1 light with F60W, S99V
notes: one-arm IgG1
B30: CE115HA000/GLS3000 F55M one-arm antibody (antibody, human IgG1, kappa, L234A L235A, N297A, name in Kabat numbering)
heavy: B1 heavy
chain: B1 chain
light: B1 light with F60M, S99V
notes: one-arm IgG1
B31: GLS3000 Y32P one-arm antibody (antibody, human IgG1, kappa, L234A L235A, N297A, name in Kabat numbering)
light: B1 light with Y37P, S99V
heavy: B1 heavy
chain: B1 chain
B32: CE115HA000/GLS3000 G89E one-arm antibody (antibody, human IgG1, kappa, L234A L235A, N297A, name in Kabat numbering)
heavy: B1 heavy
chain: B1 chain
light: B1 light with G94E, S99V
notes: one-arm IgG1

Columns and labels:
[1] = biological target: T1, CD3 epsilon homodimer protein (UniProt P07766 23-126); assay: SPR Biacore T200, CD3e homodimer on chip, antibody analyte;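 also: CD3 epsilon homodimer amine-coupled on CM4 sensor chip, antibodies injected as analyte at 25 °C in HBS-EP+, ratio ≥0.8 taken as binding retained versus unaltered parent antibody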
T1 construct: Construct of the homodimer is not described; also called CD3 (CD3 epsilon)
T1 sequence (P07766 23-126): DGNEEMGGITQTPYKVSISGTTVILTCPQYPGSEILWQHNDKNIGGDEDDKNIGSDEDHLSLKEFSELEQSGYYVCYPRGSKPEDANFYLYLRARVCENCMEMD

[2] = biological target: T2, CD3 epsilon homodimer protein (UniProt P07766 23-126); assay: SPR (Biacore T200), CD3e homodimer on CM4 chip, antibody as analyte; KD ratio vs unaltered GLS3000;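 also: CD3 epsilon homodimer amine-coupled to the sensor surface, antibodies injected as analyte at 25 °C with HBS-EP+ running buffer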
T2 construct: also called CD3 (CD3 epsilon)
T2 sequence (P07766 23-126): as above

Binder | ratio of amounts bound (altered form/GLS3000) [1] | KD ratio to GLS3000 [2] [ratio]
B1 | 0.93 | –
B2 | – | 2.8
B3 | – | 1.15
B4 | – | 1.12
B5 | 0.32 | –
B6 | – | 1.13
B7 | – | 1.27
B8 | – | 1.22
B9 | – | 1.09
B10 | 0.29 | –
B11 | – | 2.42
B12 | – | 1.28
B13 | 0.93 | –
B14 | 0.17 | –
B15 | – | 3.34
B16 | – | 1.02

Binder | ratio of amounts bound (altered form/GLS3000) [1] | KD ratio to GLS3000 [2] [ratio]
B17 | – | 0.91
B18 | – | 1.15
B19 | 0.17 | –
B20 | – | 1.15
B21 | – | 0.92
B22 | – | 1.96
B23 | – | 1.1
B24 | – | 1.02
B25 | 1.17 | –
B26 | 0.23 | –
B27 | – | 1.43
B28 | 0.58 | –
B29 | – | 1.72
B30 | – | 1.29
B31 | 0.24 | –
B32 | – | 34.6
